Laboratory results published in the domain aggregation screens of Martell et al. (2025).

experiment: soluble fraction after stress (log2 fold change); higher = more stays soluble; pooled small domains, quantitative proteomics; conditions: stress: 50 degC
How it was run: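 Quantitative proteomics served as the high-throughput read-out for pooled custom libraries of small protein domains. Each was stressed at 50°C. Aggregation propensity is expressed as the base-two log fold change in soluble protein after stress. A higher value means a larger share of the protein remains in solution.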

| Sequence | soluble fraction (log2) |
| --- | --- |
| HMSDIIVQGNRRLDTDLIITDSQIREIGTDEKSLSLAVKNLYKTGYFENVQIFKDNSVVFINVKENQ | -0.103 |
| HMDIGTYTVTASALNIRQYPTASSAKTGSYPNGSIVTIYEYLTDGSWGRTDDGWISMNYVSRRY | -2.01 |
| HMDSYSILGIEKESSMEDIEKAYIDKISKIKKEVKNEKNAAAFEAVLTKAYNDILSQKENISEEQELAE | 0.011 |
| HMGLKDTEVYMPDVRGLIEEEAQTKLKASFLTMKVSYTSSDEVKKGYVISQAPSADSVVLKGASVTVIVS | -2.07 |
| HMGDDVRKNILDVLSKFERVDITDLDSLELVRFYLEIEDIFDIEIKENDFYRLKSVDSIVDYIRNKSFF | -1.2 |
| HMETLYGQIVNDIMEKIESNAWPVGYVIPTESDFQKQYGVSRATVRNAILKLAHLGYLVRKKGSGTYVTRP | -0.975 |
| HMGVEKHLRITGTSTVSWKDAIVQAVAEASKTIDYLSNVKIIEQRARIDGKKLVEYFVDLDLSFVID | -0.0917 |
| HMAEAIVMSTAAPVKSSPDPQSKDIFVLHEGTKVAVGDSLGDWREIRIADGNKGWVLVSAIEMI | 0.0979 |
| HMLTKAEEQVMDYLWKLEKAFVKDILDEFPEPKPAYTTVSTMVRILEKKGMVGYTAYGKNHQYYPL | -1.84 |
| HMSMFTPAQVAQTLTVPPSTLRRWAKRFAPFLSPQSGKKRTYTVADLDTFQRIKELSAQGYTFAQIDQAL | -0.738 |
| HMGKDIYLTSGWVEKFDELNEFSNSVDNYDRLNQFGMYENAIIGDTGVIKITDEMIFDLYEKIQVPVEAGP | -0.185 |
| HMTANPHKPEPLQIDTSDITPGVTVIHKAFGNGTVVSVDNNRILIDFDGIEKKFPFPGAFLYGFLQK | 0.132 |
| HMAKRTVPSVAEAIDNFRRQHRRMPSYAEMLPLLGVRSKSVVHFWINKLLENGLLEKDDKGYLTPGS | -0.00958 |
| HMALPGESVYVSILQSGSNRDQGVGYLDDGTMVVVDGAIKDIGKSIEVVINKSHQTVAGKMLFAKKVA | -0.0558 |
| HMNILDPTVMKNILDKNHEEFIAIYESAPLGQKTIINSMVFDKRLNGENVDANILMYLQNKTNIDYINIEP | -0.167 |
| HMDKINQEAIEDEAGLWLAKIDGRQLAQEEVRELIAWMRRSDFHREYLITLARQWDGMAALNKLATLFP | -0.976 |
| HMSKEDDSLVVTFRRMLLEEVDLHELSRIDANQRRARLERVIAHLVSREGVILSASERNQLVRRVVDEAV | -0.529 |
| HMNEQKVSSLLTPRQLAFIDEYLIDFNGAQAAIRAGYSHKTAGPQAARLLVNVNISRMIAERIEARNK | -1.7 |
| HMGDLEEAVKDFSEAIRLNDSWAEAYANRAVVYAEQGDAAQSDQDAEKARLLGVDQNRLNEMLNAVNS | 0.0258 |
| HMDALKAVYQWVTRTMMKNQTGVMQTLPNRDLIELNTQITAQRLMQAGVDPTTLKNANQVENAVNIIESR | -0.473 |
| HMTGREIDQLFSVVNDLKAKGVGMVFISHHLDEIARIADSVSVLRDGGFVAEVPASTPEKKLVTLMVGRDI | -0.208 |
| HMISTVFYVDVKGEVHHPGVYQMKAENRVKDLIEAAGGFTPLADDQKLNLAQLLEDQMVIVVPKKGEEV | 0.278 |
| HMYHIYPVADNDTPKLSADRLEYSLSNALLTNKLLNIDEIKKIYNDVILDKDEDGTLELSFKS | 0.0308 |
| HMQLVPGIGRLSARELEVFTLIGRGLGTSEIGKKLGVSAYTVQTHRNHIKEKLNLPNAAAITYWAIQWAHG | -2.14 |
| HMNQAIIVPDVKGLPLEEATTFFENNDLRYTVIDSVYTKDVPPGAIYEMVPGAGSKVKEGRIIFVTLNAR | -0.314 |
| HMEEVYVPDIRDKSISDAKKILSQMGLKYRIEGEGYDDSTVIKDQTPKPGALLAKDSVVIAYINE | 0.126 |
| HMNLGNLLKIYRKNSLLTQQQVADALNINRTTYTYYETGKTEPSIDTLHKLIKIFGITYDDLL | -2.7 |
| HMERLLVSKINGMITEAKVSVEDVVKVVASRGHYPEVKSIDEYPDDFLSRWVVPNFKKIVEMINANKEA | 0.187 |

| Sequence | soluble fraction (log2) |
| --- | --- |
| HMKSISMSKLRHLLQLYVQGRSKKLISEQTGIARNTLKKYIKEFSEAGLSLEALLALSDKELEDLFVK | -1.01 |
| HMPTVLKQGSTGQEVKELQQALSKLGYRVTVTGEFDTATHYGVVRFQRKHRLTIDGIVGPQTLSKIRAHQK | -2.86 |
| HMSQRITYTEFVQMVKDDKVEKVEVGANQYNITPKSDDKTLVKMTYYTGFIKDENLLDLLNKHKVEIDGYI | 0.157 |
| HMGASYSQFLDQVDSGNVQKVAFGGDMRGGTSQLTYTTRGGQSSTITAPFDRDLINVLRTKNVEIVQEEP | 0.139 |
| HMTEQLTLVGKTGVTTTDLRPSGKVEVDGKRYDAVADNGAFISKGAHIKVVRYVTGQVYVVPTD | 0.0883 |
| HMISAEPVGEDLFKVAFPFLGGSTVFEKTIEQFIEEHPSKRIDHIYTVPNPLRLKKADALIFYIITEEK | -1.02 |
| HMLAFDKDDSGAVAEIILVLGRYWMDFSHKKYPAAEGVALRHKGLSHIFTVLRPYLSTPASELIGERLRR | -0.409 |
| HMVKGIVPNLIGKTQDEAKQMAEEYGFSIGTVSEKASDKPKGTVIEQSPKAGAKASGVTSINIVVSDGS | -0.0342 |
| HMLPSMENWLGELSFWQTPWWERRDFSTFDNIAQSKEELDEFMSRDDNGAILERMQDPINTIEAE | -0.46 |
| HMHAGQIISQKIKESGISISHVAKHLKVQRATLYNLFEREVWPAHRLRTIEALLHIDLSDLYP | -1.62 |
| HMLVPWKSANLFKLVEPNFRLAERKIPMLPSADREKLQEIMSDMKDAIVDNDKMALMKLDEELTDFLFDFV | -1.22 |
| HMKMSLKENLLELLQKSSGEFLSGERAAETLGVSRTAVWKAVTSLKNEGYNIESVTNRGYRFS | -0.0145 |
| HMSTLSIHIPDKFAGQRLDQALAELYSQFSRSRLQQWLNDGELLVDGKSVKANKKVLGGEFIQILK | -0.861 |
| HMTRQEFIRKLQEALNGKLDAATIQDHLKFYDDYIIEEMRKGKSEQEVLELLGDPWAIAKTIVDAS | 0.349 |
| HMYSKQRELIMEAVFKNRVHPTAEYVYKLLKKDHPELSLGTVYRNLNYWAENNMLKKINVPGGSDRFDGT | -0.00987 |
| HMSMTVHGALRLLQLPTIADRPYTLKEIREAYREQAQNHHPDAGGSADAMRRLNEAYQFLKERYRQA | -0.16 |
| HMESIAEIDRMNAKIFMDEFQDSLSIMQKTTNPETFFSRYDLAMERLDNMVELQQKGIKFTSDLSSLKAQ | 0.0074 |
| HMNAESLIGDRAVVTVAIERNKRGRVDVTGQDWAATTRDGEEIKVGQEVLVVGISGVALIVEER | -0.426 |
| HMKITIDSVERDETFRLIWGTGWKPKNKIQELAAIQAKKNGLGRMNEVAGLAAWRGIWQQVAEQVAQEVL | -1.04 |
| HMESDRVAHVVAPGETLFSISGKYGIGMGELVAANPVLESRPPRTGDTLLIRLPENPLPAETDAETLS | 0.121 |
| HMYPIYDYISNMYLGKHLNAGMSLEEARGIMDEMLEKLLFDVPEEYHIDRDHFYEYLKKYYTERFSA | -1.81 |
| HMNEYLPEAVQKLLEVMEYDIPYTSNELMERLGLKAKEGFRRNYLHPAMEMKLIQMTIPDKPNSRNQRYLR | -2.11 |
| HMANADVVLVDLDKEYTVDAAKFHSVVKHSPFNGFAVKGAPVLTIVRGTVVAENGEVVGQPGHSKMVRP | -0.0579 |
| HMQVEYTRGELLQDLKEENVLYATITPSRETPTGEVDFVFKDKSIKTLYVTDVSEIEGLLMDYGIDPEVKK | -0.0511 |
| HMASVDDILDRFKQAAKVTTDADLAKVLGLSRQSIAAARLRAKIPASWFPKMSSLFNISTEWLYRG | -0.628 |
| HMLGKNEAKEYKVAYGDIGKMPALIMGLVPLPKPPVVDERLRTLYVTATPEQHREIEAIMNRI | 0.156 |
| HMKIQEVDYSTFLNMLNEKSIAQVEIQDNQIAFNSNQEGNKQIYVTGRIEEDTELVNRLQAAGVQFSRV | 0.079 |
